The values that follow are results of earlier work, collected in article PMC10339233.

For this series, the target named is thrombomodulin EGF-like domains 4-6 (Homo sapiens) (UniProt P07204). Description: SPR. On the technique in general: SPR reads the build-up and loss of mass on a sensor chip optically.

For thrombin (from UniProt P00734), the Kd was 4 nM.

What is called Kd is the constant that tells how readily two partners part at equilibrium.
